# Positions count from the first letter of the chain named.
# B1: LIBC523844-1 (antibody, V domains shown)
# VH: QVQLQESGPGLVKPSQTLSLTCTVSGGSIRRGGDYWSWIRQHPGKGLEWIGHVYYTGSTKYNPSFKDRATISVNTYKNQFSLKLSSVTAADTAVYYCARDYDILTGYSYYYYGMDVWGQGTTVTVSS
# VL: DIVMTQSPLSLPVTPGEPASISCRSSQSLLSSSGANYVDWYLQKPGQSPQLLIYQGSNRASGVPDRFSGSGSGTDFTLKISRVEAEDVGVYYCRQARALPRTFGQGTKVEIKR
# B2: LIBC523596-1 (antibody, V domains shown)
# VH: B1 VH with Y55Q, T56S, S58Q, K60A, S64N, K66E, D100E, I103V, L104V, T105S
# VL: B1 VL with S31T, A35Y, R94M, R97V, A98K, L99I
# B3: LIBC528131-1 (antibody, V domains shown)
# VH: B1 VH with V53I, Y55Q, S58Q, K60A, S64N, F65L, K66E, D67G
# VL: EIVLTQSPATLSLSPGERATLSCRASQSVSSYLGWYQQKPGQAPRLLIYGASSRATGIPDRFSGSGSGTDFTLTISRLEPEDFAVYYCQQYGSSPRTFGQGTKVEIKR
# B4: LIBC523670-1 (antibody, V domains shown)
# VH: QVQLQESGPGLVKPSQTLSLTCTVSGGSIRRGGDYWAWIRQHPGKGLEWIGHVYQTGQTAYNPNLESRATISVNTYKNQFSLKLSSVTAADTAVYYCARNYDVLSGYSYYYYGMDVWGQGTTVTVSS
# VL: B1 VL with S31T, S33Y, V38L, R94M, R97L, A98Q, L99I
# B5: LIBC523748-1 (antibody, V domains shown)
# VH: B1 VH with K66E, D67G, N74K
# VL: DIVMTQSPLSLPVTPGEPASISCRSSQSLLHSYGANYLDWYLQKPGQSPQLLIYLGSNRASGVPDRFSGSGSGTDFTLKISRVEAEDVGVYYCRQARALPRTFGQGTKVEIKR
# B6: LIBC523868-1 (antibody, V domains shown)
# VH: B1 VH with T56E, K60A, K66E
# VL: B1 VL with S31T, S33Y, A35I, Q55L, R94M, A98Q, L99I
# B7: LIBC523603-1 (antibody, V domains shown)
# VH: B4 VH with T56S, L65F, S67N, N100D, V103A, L104V
# VL: B1 VL with S33Y, A35N, R97V, A98G
# B8: LIBC523969-1 (antibody, V domains shown)
# VH: B1 VH with V53I, Y55Q, S58Q, S64N, F65L, D67G
# VL: B1 VL with S33T, V38L, R97V, A98G
# B9: LIBC523862-1 (antibody, V domains shown)
# VH: B1 VH with V53I, Y55Q, K60A, F65L, D67G
# VL: B1 VL with S31H, S33T, Q55L, R97I
# B10: LIBC523760-1 (antibody, V domains shown)
# VH: B1 VH with Y55Q, S64K, D67G
# VL: B1 VL with S31T, Q55L, R97V, A98G, L99T
# B11: LIBC523813-1 (antibody, V domains shown)
# VH: B1 VH with S58Q, K60A, S64K, N74K
# VL: B1 VL with Q55L, R94M, A98G, L99I
# B12: LIBC523857-1 (antibody, V domains shown)
# VH: B4 VH with A37S, V53I, N64R, S67G, N100D, V103I, S105T
# VL: B1 VL with S33T, V38L, Q55L, R97V, A98E
# B13: LIBC527869-1 (antibody, V domains shown)
# VH: QVQLQESGPGLVKPSQTLSLTCTVSGGNIRRGGDYWAWIRQHPGKGLEWIGHIYHTGKTNYNPSFKGRATISVKTYKNQFSLKLSSVTAADTAVYYCARNYDTLSGNSYYYYGMDVWGQGTTVTVSS
# VL: DIQLTQSPSTLSASVGDRVTITCRASQSISNYLNWYQQKPGKAPKLLIYAASSLHSGVPSRFSGSGSGTDFTLTISSLQPEDFASYYCQQYQSYPLTFGQGTKVEIKR
# B14: LIBC528148-1 (antibody, V domains shown)
# VH: B1 VH with V53I, Y55Q, T56S, S58Q, S64K, F65L, D67G, N74D
# VL: B13 VL
# B15: LIBC527906-1 (antibody, V domains shown)
# VH: B1 VH with S37G, V53I, Y55Q, K60N, S64N, N74D
# VL: B13 VL
# B16: LIBC527879-1 (antibody, V domains shown)
# VH: B1 VH with S37G, V53I, Y55Q, T56S, K60N, S64K, F65L, D67S, N74D, L104F
# VL: B13 VL with T10S, S30I, N31S, H55R, S85T, Q92S, S93N, Q100G, K103R
# B17: LIBC527827-1 (antibody, V domains shown)
# VH: B4 VH with A37G, T56S, N64K, L65F, S67N, N74K, V103T, S105T, Y107H
# VL: B13 VL with L4M
# B18: LIBC528141-1 (antibody, V domains shown)
# VH: B1 VH with Y55Q, S64R, D67G
# VL: B13 VL
# B19: LIBC528169-1 (antibody, V domains shown)
# VH: B1 VH with V53I, Y55Q, T56S, K66E
# VL: B13 VL
# B20: LIBC527968-1 (antibody, V domains shown)
# VH: B1 VH with V53I, Y55Q, T56S
# VL: B13 VL
# B21: LIBC527984-1 (antibody, V domains shown)
# VH: B1 VH with V53I, Y55Q, S58K, K60N, S64N, D67S
# VL: B13 VL with L4M
# B22: LIBC527912-1 (antibody, V domains shown)
# VH: B1 VH with H52Y, V53I, Y55Q, S58Q, S64N, K66E, D67G
# VL: B13 VL with T10S, N31S, H55R, S85T, Q92S, S93N, Q100G, K103R
# Target: human cannabinoid receptor 1 (huCB1), full length, expressed on cells (human, UniProt P21554 1-472)
# Test: cell-based or functional assay
# Sequence of human cannabinoid receptor 1 (huCB1), full length, expressed on cells (P21554 whole entry): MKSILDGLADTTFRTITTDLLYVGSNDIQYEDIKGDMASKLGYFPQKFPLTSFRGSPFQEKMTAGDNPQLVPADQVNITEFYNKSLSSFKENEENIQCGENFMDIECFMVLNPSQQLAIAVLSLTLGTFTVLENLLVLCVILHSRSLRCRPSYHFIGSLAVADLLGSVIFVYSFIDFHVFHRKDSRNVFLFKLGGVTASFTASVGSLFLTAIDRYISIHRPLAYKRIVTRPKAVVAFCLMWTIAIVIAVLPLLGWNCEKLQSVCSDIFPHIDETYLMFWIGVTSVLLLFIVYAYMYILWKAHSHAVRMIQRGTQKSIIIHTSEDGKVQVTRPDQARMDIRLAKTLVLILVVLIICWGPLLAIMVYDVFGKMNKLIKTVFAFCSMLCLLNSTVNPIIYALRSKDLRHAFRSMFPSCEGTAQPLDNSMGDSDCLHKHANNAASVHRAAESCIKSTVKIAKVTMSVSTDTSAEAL
Binder,"Mean IC50 (nM), cAMP antagonist assay [nM]","Mean IC50, -fold vs Rimo [fold vs Rimonabant]","n = 1 IC50 (nM), cAMP antagonist assay [nM]","n = 1 IC50, -fold vs Rimo [fold vs Rimonabant]","n = 2 IC50 (nM), cAMP antagonist assay [nM]","n = 2 IC50, -fold vs Rimo [fold vs Rimonabant]"
B1,3.83,1.28,6.2,1.47,1.46,0.82
B2,8.99,,,,4,
B3,4.23,1.41,6.63,1.57,1.83,1.02
B4,6.12,2.04,8.72,2.07,3.52,1.97
B5,7,2.33,9.57,2.27,4.43,2.48
B6,7.59,2.53,11.9,2.81,3.32,1.86
B7,4.72,1.57,7.29,1.73,2.16,1.2
B8,3.86,1.29,6.45,1.53,1.26,0.7
B9,7.31,2.44,11.2,2.66,3.42,1.91
B10,4.28,1.43,6.12,1.45,2.44,1.36
B11,5.95,1.98,8.96,2.13,2.94,1.64
B12,7.94,2.65,13.4,3.18,2.48,1.39
B13,47,15.7,57.8,13.7,36.2,20.2
B14,5.95,,9.1,,,
B15,5.15,1.72,7.66,1.82,2.64,1.48
B16,3.95,1.32,6.12,1.45,1.78,0.99
B17,23.7,7.89,32,7.6,15.3,8.54
B18,4.05,1.35,6.26,1.49,1.84,1.03
B19,7.81,2.6,12.3,2.92,3.31,1.85
B20,4.03,1.34,6.1,1.45,1.95,1.09
B21,4.25,1.42,7.24,1.72,1.27,0.71
B22,3.95,1.32,5.91,1.4,1.99,1.11

# From patent publication US20250277029A1 (Amgen, published 2025)
